Test results as given in patent US7507716B2, “Method for treating pain with prolactin antagonists” (Board of Regents, The University of Texas System, priority 2005, dated 2009).

B1: PRL: Ovine PRL [oPRL-21, BIO] provided by NHPP; prolactin polypeptide hormone (protein, UniProt P01240 31-229, looked up)
Prolactin: TPVCPNGPGNCQVSLRDLFDRAVMVSHYIHNLSSEMFNEFDKRYAQGKGFITMALNSCHTSSLPTPEDKEQAQQTHHEVLMSLILGLLRSWNDPLYHLVTEVRGMKGVPDAILSRAIEIEEENKRLLEGMEMIFGQVIPGAKETEPYPVWSGLPSLQTKDEDARHSAFYNLLHCLRRDSSKIDTYLKLLNCRIIYNNNC

Tests used:
PRL-R = assay: Western blot of PRL-R isoforms in TG of OVX rats; format: in vivo, rat; details: TG of OVX rats, 2, 20 or 80 μg/kg s.c. daily for 10 days
Description: There are two isoforms of the rat PRL receptor (PRL-R) that differ in the length of their cytoplasmic tail and are therefore termed the long and short isoforms. […] Moreover, the differential expression of these receptors is regulated by estrogen in certain tissues (Sakaguchi et al., 1994; Pi et al., 2003). To determine whether estrogen regulates the expression of the PRL-R in the female TG, protein extracts prepared from TG of OVX rats and subjected to Western blot analysis using an anti-PRL-R antibody that recognizes both the long and the short PRL-R isoforms. FIG. 3A depicts a representative immunoblot of this experiment. The antibody recognized two bands migrating at approximately 100 KDa and 40 KDa corresponding to the long and short PRL-R isoforms respectively. Blots were stripped and probed with an antibody against beta-actin to normalize for loading differences. […] The data are presented as mean±SEM (n=4/group, *=p<0.05 and **=p<0.01; one-way ANOVA with Bonferroni's post hoc test).
At the end of the 10th day, animals were used for behavioral experiments or sacrificed by decapitation and the TG of each individual animal were harvested. Harvested tissue was used for RNA isolation, total protein isolation, or for preparing primary cultures of TG neurons. […]

TG neurons = assay: Patch clamp, heat-evoked currents (Iheat); format: cell-based, rat; details: neurons from intact female rats
Experimental: TRPV1 is known to be activated by noxious heat (>42° C). Furthermore, this effect is itself sensitized by hyperalgesic agents such as bradykinin (Cesare et al., 1999) and NGF (Chuang et al., 2001; Zhu et al., 2004). To determine whether PRL sensitizes heat-evoked currents (Iheat), the effect that pre-treatment of intact female rat TG neurons with PRL has on Iheat was examined. […] Data are presented as mean±SEM (n=8-12/group, ***=p<0.001 versus vehicle control; two-tailed unpaired T test). […] (FIG. 6B) and 48° C. (FIG. 6C). Data are presented as mean±SEM (n=8-12/group, ***=p<0.001 versus vehicle control; two-tailed unpaired T test). FIG. 6D and FIG. 6E are representative traces of Iheat recordings from TG neurons pretreated with PRL or vehicle (6D); and plotting Iheat as a function of temperature (FIG. 6E). PRL lowered the activation temperature threshold and increased the magnitude of Iheat. In addition, the magnitude of the Iheat evoked at 43° C. (I43) and 48° C. (I48) points in neurons pretreated with prolactin or vehicle was measured.
Patch Clamp Electrophysiology: All recordings were performed in whole-cell voltage-clamp (Vh=−60 mV) configuration. Recordings were acquired at 22-24° C. from the somata of neurons (15-45 pF) using an Axopatch200B amplifier and pCLAMP9.0 software (Axon Instruments, Union City, Calif.). Data were filtered at 0.5 kHz and sampled at 2 kHz. Borosilicate pipettes (Sutter, Novato, Calif.) were polished to resistances of 3-5 MΩ in pipette solution. Access resistance was compensated (40-80%) to 7-10 MΩ values when appropriate. Cell diameters were calculated using d=√[100*Cm/π], where d (μm) is cell diameter and Cm (pF) is membrane capacitance.
For the recording of heat-activated currents (Iheat), SES was heated on-line by a Peltier device (Warner Instruments, Hamden, Conn.) and locally delivered via a glass tube positioned in close proximity to the neuron. Temperature values were acquired with a thermister probe (0.5-1.5 mm size; Harvard Apparatus, Holliston, Mass.) situated at the orifice of the glass tube for local delivery of heated SES. […]

| Molecule | expression of the long form of PRL-R (PRL-R) | expression of the short form of the PRL-R (PRL-R) | threshold temperature for Iheat activation (TG neurons; PRL 40 nM for 5 min, n=16, vehicle 41.9±0.67) [°C] | inward currents evoked by 43° C. (I43) (TG neurons; PRL pretreatment) | inward currents evoked by 48° C. (I48) (TG neurons; PRL pretreatment) |
| --- | --- | --- | --- | --- | --- |
| C[C@]12CC[C@@H]3c4ccc(O)cc4CC[C@H]3[C@@H]1CC[C@@H]2O [estradiol, 17-β-estradiol] | increases expression of the long form of PRL-R in the TG of OVX rats in a dose-dependent manner | does not appear to significantly affect expression of the short form of the PRL-R |  |  |  |
| B1 |  |  | 36.8±0.58 | significantly increased | significantly increased |
